In PMC4895218, “Structural flexibility of the periplasmic protein, FlgA, regulates flagellar P-ring assembly in Salmonella enterica” (Scientific Reports, 2016):
Positions count from the first letter of the chain named. Names and notes keep the numbering of the source.

T1: N-terminally His-tagged FlgI (Salmonella enterica serovar Typhimurium, UniProt P15930 20-365)
T1 construct: FlgI, flagellar P-ring component protein, Salmonella enterica serovar Typhimurium; Probably without its Sec signal peptide (surmise); also called His-FlgI; source: E. coli Origami2 (DE3), co-expressed, in cell extract (pull-down); purified (SPR); not shown: His tag, N-terminal, kept
T1 sequence (looked up): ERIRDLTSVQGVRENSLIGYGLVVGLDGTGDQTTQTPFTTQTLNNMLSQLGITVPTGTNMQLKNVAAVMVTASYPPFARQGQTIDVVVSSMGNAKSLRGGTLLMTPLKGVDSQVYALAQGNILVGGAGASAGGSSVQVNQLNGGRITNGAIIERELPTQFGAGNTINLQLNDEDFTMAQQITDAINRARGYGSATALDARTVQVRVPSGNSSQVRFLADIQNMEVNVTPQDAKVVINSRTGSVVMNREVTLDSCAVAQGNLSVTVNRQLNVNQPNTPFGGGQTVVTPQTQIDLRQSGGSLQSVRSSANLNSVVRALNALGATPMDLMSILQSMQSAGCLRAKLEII

B1: FlgA_(R113C-S190C) (purified, histidine tag removed) (natural protein)
chain: QDINAQLTTWFSQRLAGFSDEVVVTLRSSPNLLPSCEQPAFSMTGSAKLWGNVNVVARCANEKRYLQVNVQATGNYVAVAAPIARGGKLTPANVTLKRGRLDQLPPRTVLDICQIQDAVSLRDLAPGQPVQLTMIRQAWRVKAGQRVQVIANGEGFSVNAEGQAMNNAAVAQNARVRMTSGQIVSGTVDCDGNILINL
modifications: engineered disulfide bond between C113 and C190
notes: FlgA, Salmonella enterica serovar Typhimurium, with R113C and S190C; numbers count on: the mature protein; also called covalently closed form of FlgA; source: purified; N-terminal-fused histidine tag removed with thrombin prior to gel filtration; not shown: His tag, N-terminal, cleaved
B2: FlgA (purified, histidine tag removed) (natural protein, Salmonella enterica serovar Typhimurium)
chain: B1 chain with C113R, C190S
notes: FlgA, Salmonella enterica serovar Typhimurium; numbers count on: the mature protein (Q1-L198); The crystallised FlgA was another construct (C-terminal hexa-histidine-tagged precursor purified from the periplasm of E. coli); source: purified; N-terminal-fused histidine tag removed with thrombin prior to gel filtration; not shown: His tag, N-terminal, cleaved

Legend:
[1] = target: T1, N-terminally His-tagged FlgI; test: SPR; Biacore T200, 25 °C; FlgA or FlgA R113C-S190C immobilised on CM5 chip by amine coupling, FlgI as analyte; 10 mM HEPES, 150 mM NaCl, 0.05% Surfactant P20, pH 7.4; two-state reaction model; conditions: both partners purified
[2] = target: T1, N-terminally His-tagged FlgI; test: SPR; Biacore T200, 25 °C; FlgI immobilised on CM5 chip by amine coupling, FlgA or FlgA R113C-S190C as analyte; 10 mM HEPES, 150 mM NaCl, 0.05% Surfactant P20, pH 7.4; two-state reaction model; conditions: both partners purified

| Binder | Kd [1] [nM] | Kd [2] [nM] |
| --- | --- | --- |
| B1 | 166 | 106 |
| B2 | 354 | 126 |
